Measured values as given in US20100041597A1, “PEPTIDES TARGETED TO PROTEIN KINASE C ISOFORMS AND USES THEREOF” (priority 2005, published 2010).

Assays:
[1] = molecular target: PKC-βII (Homo sapiens, UniProt P05771); experiment: ELISA-based competitive binding assay with purified PKC isoform; set-up: key to Affinity for PKC isoform βII: —: no detectable affinity; Low to very low affinity at 10X or 20X or both PRE concentrations in at least one cell line in the cell extract assay; Low affinity in purified isoform assay.; Moderate affinity at 10X or 20X or both PRE concentrations in at least one cell line in the cell extract assay.; High affinity at 10X or 20X or both PRE concentrations in at least one cell line in the cell extract assay; High affinity in purified isoform assay; conditions: for inhibition at 50 µM / inhibition at 100 µM / inhibition at 200 µM / calculated binding capacity (100-% n) after subtraction of the DMSO apparent binding capacity: purified PKC-βII; for inhibition at 50 µM / inhibition at 100 µM / inhibition at 200 µM: read-out: calculated binding capacity (100-% n) after subtraction of the DMSO apparent binding capacity; for Affinity for PKC isoform βII: Purified isoform, Table 20
Sequence of PKC-βII (P05771 1-673 isoform P05771-2): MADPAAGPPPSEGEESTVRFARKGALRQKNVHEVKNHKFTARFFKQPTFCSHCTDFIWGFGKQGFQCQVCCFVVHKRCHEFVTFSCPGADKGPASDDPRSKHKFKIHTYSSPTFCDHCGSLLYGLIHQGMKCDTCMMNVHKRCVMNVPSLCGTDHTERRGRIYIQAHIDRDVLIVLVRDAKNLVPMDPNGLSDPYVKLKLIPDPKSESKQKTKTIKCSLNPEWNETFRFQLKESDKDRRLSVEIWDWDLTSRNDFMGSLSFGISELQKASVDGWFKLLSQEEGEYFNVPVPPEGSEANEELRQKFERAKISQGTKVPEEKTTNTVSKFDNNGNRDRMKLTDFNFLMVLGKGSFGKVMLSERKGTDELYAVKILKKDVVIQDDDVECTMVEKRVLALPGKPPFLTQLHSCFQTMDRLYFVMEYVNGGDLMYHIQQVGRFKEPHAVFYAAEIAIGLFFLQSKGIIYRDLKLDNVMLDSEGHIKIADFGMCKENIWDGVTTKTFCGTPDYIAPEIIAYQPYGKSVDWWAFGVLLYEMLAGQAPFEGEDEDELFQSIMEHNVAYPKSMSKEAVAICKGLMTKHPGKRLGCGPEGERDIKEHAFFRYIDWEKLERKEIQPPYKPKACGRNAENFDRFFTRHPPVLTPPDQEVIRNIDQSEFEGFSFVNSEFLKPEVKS
Description: (§1) Peptides PRE 1, 2, 3, 4, 5, 6, 7, 8, 9, 10, 11, 12 and 13 (see Table 3) were tested for their ability to interfere with binding of PKC isoform-specific antibodies to their target PKC isoforms using a competitive binding assay and purified PKC isoforms.
(§2) Procedure: Competitive binding was assessed using a 96 well plate ELISA-based assay as described below.
(§3) Greiner 96 well ELISA plates were coated with the appropriate PKC isoform diluted in PBSN (PBS with Calcium/Magnesium+0.05% Sodium azide w/w). 50 μL/well at 250 ng/mL was used. Control wells contained PBSN only. Plates were incubated overnight at 4° C.
(§4) The plates were washed 3 times with 200 μL of dH2O per well, then 100 μL of blocking solution was added per well and the plate incubated for 1 h at 37° C. The washing steps with dH2O were repeated and 50 μL of the appropriate PRE solution (PRE stock solution [20 mM in DMSO] diluted in PBSN) was added and the plate incubated for 1 h at room temperature.
(§5) After incubation, 5 μL of 1.1:400 anti-PKC (isoform specific antibody) was added per well (to provide a final concentration of 1:4000). For PKC-epsilon, 1.1:800 dilution was used and for PKC-zeta a 1.1:100 dilution was used due to high and low binding affinity, respectively. The plates were then incubated 1 h at room temperature, followed by washing with dH2O as described above.
(§6) 50 μL of 1:1000 dilution of Alkaline Phosphatase (AP) conjugated antibody (anti-rabbit for all except zeta, which was anti-goat) was then added and the plate incubated for 1 h at room temperature. Washing with dH2O was then repeated. Finally, 100 μL of pNPP solution in pNPP buffer (2 mM MgCl2, 100 mM Sodium bicarbonate in water, pH 9.8) was added to all wells and incubated for 8 minutes for α, βI, βII ε, and ζ, or for 15-20 mins for […] (until sufficient coloration is observed). The reaction was stopped by addition of Stop solution (2N NaOH) and the absorbance at 405 nm was read on a Galaxy Plate reader.
(§7) Controls were PKC without PRE; blank controls, and controls containing the final concentrations of DMSO used for solubilizing the PREs. The non-specific binding capacity related to DMSO was also measured.
(§8) The antibodies used were as follows: anti-PKC α (Cat. No. SC-208); anti-PKC βI (Cat. No. SC-209); anti-PKC βII (Cat. No. SC-210); anti-PKC δ (Cat. No. SC-213); anti-PKC ε (Cat. No. SC-214); anti-PKC ζ (Cat. No. SC-216-G) (all from Santa Cruz Biotechnology, Inc.). The AP-conjugated antibodies were obtained from Jackson Immuno Research Laboratories (West Grove, Pa.).
(§9) Calculations: The OD values measured at 405 nm represent the free PKC coated per well.
(§10) OD405 PKC alone−Blank OD405 of each sample=OD405 coated isoform
(§11) (OD405 of sample X/OD405 coated isoform)×100=% n that represents the percentage of X binding compared to control.
(§12) 100-% n measures the relative binding capacity of X towards the tested isoform.
(§13) The apparent binding capacity of the DMSO samples was then subtracted from X binding capacity.
(§14) All measurements were made in triplicate and the values in the table represent the averaged calculated binding capacity values after subtraction of the DMSO apparent binding capacity (averaged from 12 values, respectively 10.80, 11.20 and 16.40 corresponding to the concentrations of DMSO used to dilute the […] at 200, 100 and 50 μM respectively). The results allow for quantitative comparison of the binding capacity of each PRE towards an individual isoform within each table, but not among isoforms due to differences in sensitivity of the specific antibodies toward the secondary antibody. This applies particularly to PKC-delta. As noted above, the colour development duration was increased 2-3 times and, as a result, the OD405 measurements may be overestimated for this isoform.

[2] = molecular target: T1, PKC-ζ (Homo sapiens, UniProt Q05513); experiment: as above; set-up: key to Affinity for PKC isoform ζ: —: no detectable affinity; Low to very low affinity at 10X or 20X or both PRE concentrations in at least one cell line in the cell extract assay; Low affinity in purified isoform assay.; Moderate affinity at 10X or 20X or both PRE concentrations in at least one cell line in the cell extract assay.; High affinity at 10X or 20X or both PRE concentrations in at least one cell line in the cell extract assay; High affinity in purified isoform assay; conditions: for inhibition at 50 µM / inhibition at 100 µM / inhibition at 200 µM / calculated binding capacity (100-% n) after subtraction of the DMSO apparent binding capacity: purified PKC-ζ; for inhibition at 50 µM / inhibition at 100 µM / inhibition at 200 µM: read-out: calculated binding capacity (100-% n) after subtraction of the DMSO apparent binding capacity; for Affinity for PKC isoform ζ: Purified isoform, Table 20
T1 sequence (Q05513 1-592): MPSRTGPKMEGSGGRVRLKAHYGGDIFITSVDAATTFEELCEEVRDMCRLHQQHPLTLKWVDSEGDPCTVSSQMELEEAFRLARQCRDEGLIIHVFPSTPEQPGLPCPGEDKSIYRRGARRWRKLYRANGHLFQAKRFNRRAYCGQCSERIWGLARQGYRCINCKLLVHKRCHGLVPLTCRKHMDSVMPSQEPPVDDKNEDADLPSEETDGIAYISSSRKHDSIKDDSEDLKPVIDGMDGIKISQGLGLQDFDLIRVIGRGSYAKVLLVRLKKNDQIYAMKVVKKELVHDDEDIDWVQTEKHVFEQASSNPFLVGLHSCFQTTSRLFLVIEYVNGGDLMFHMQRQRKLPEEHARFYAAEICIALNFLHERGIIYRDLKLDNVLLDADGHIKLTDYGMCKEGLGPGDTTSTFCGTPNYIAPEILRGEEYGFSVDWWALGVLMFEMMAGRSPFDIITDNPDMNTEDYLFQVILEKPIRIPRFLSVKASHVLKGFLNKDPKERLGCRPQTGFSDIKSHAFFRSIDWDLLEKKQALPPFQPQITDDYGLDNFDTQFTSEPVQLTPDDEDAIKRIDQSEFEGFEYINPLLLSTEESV
Description: as §1, §2, §3, §4, §5, §6, §7, §8, §9, §10, §11, §12, §13, §14

Substance | Affinity for PKC isoform βII [1] | Affinity for PKC isoform ζ [2] | calculated binding capacity (100-% n) after subtraction of the DMSO apparent binding capacity ([1]; PRE 50 μM) | also measured
Ac-AKGIQEVKGGDAQNLIGISI-NH2 [PRE 3] | — | H |  | inhibition at 50 µM ([1]; PRE 50 μM): 0%; inhibition at 100 µM ([1]; PRE 100 μM): 0%; inhibition at 200 µM ([1]; PRE 200 μM): 3.72%; inhibition at 50 µM ([2]; PRE 50 μM): 14%; inhibition at 100 µM ([2]; PRE 100 μM): 23.9%; inhibition at 200 µM ([2]; PRE 200 μM): 29.1%; targeting of PKC-ζ ([2]; purified isoform, Tables 14-19): targeted by PRE 3 only
Ac-AKGIQEVKGGKDAQNLIGISI-NH2 [PRE 5] | — | — |  | inhibition at 50 µM ([1]; PRE 50 μM): 0%; inhibition at 100 µM ([1]; PRE 100 μM): 0%; inhibition at 200 µM ([1]; PRE 200 μM): 0%; inhibition at 50 µM ([2]; PRE 50 μM): 0%; inhibition at 100 µM ([2]; PRE 100 μM): 0%; inhibition at 200 µM ([2]; PRE 200 μM): 0%
Ac-ISIGILQNADK-NH2 [PRE 7] | — | — | 5.42 | calculated binding capacity (100-% n) after subtraction of the DMSO apparent binding capacity ([1]; PRE 100 μM): 11.07; calculated binding capacity (100-% n) after subtraction of the DMSO apparent binding capacity ([1]; PRE 200 μM): 2.59
Ac-KDANQLIGISI-NH2 [PRE 6] | — | — |  | 
Ac-KDAQNLIGISI-NH2 [PRE 4, Ac-KDAQNLIGISI-NH2] | L | — |  | inhibition at 50 µM ([1]; PRE 50 μM): 2.69%; inhibition at 100 µM ([1]; PRE 100 μM): 13.5%; inhibition at 200 µM ([1]; PRE 200 μM): 1.18%; inhibition at 50 µM ([2]; PRE 50 μM): 0%; inhibition at 100 µM ([2]; PRE 100 μM): 0%; inhibition at 200 µM ([2]; PRE 200 μM): 5.85%
RRKKGGKDFVVKR [PRE 1] | — | — |  | calculated binding capacity (100-% n) after subtraction of the DMSO apparent binding capacity ([2]; PRE 50 μM): 4.11

Second part, led by results:

Affinity for PKC isoform βII [1] | Affinity for PKC isoform ζ [2] | calculated binding capacity (100-% n) after subtraction of the DMSO apparent binding capacity ([1]; PRE 50 μM) | Substance | also measured
L | — |  | Ac-ISIGILNQADK-NH2 [PRE 10] | 
— | — | 4.55 | Ac-KDAQNLI-NH2 [PRE 12] | calculated binding capacity (100-% n) after subtraction of the DMSO apparent binding capacity ([2]; PRE 50 μM): 4.20; calculated binding capacity (100-% n) after subtraction of the DMSO apparent binding capacity ([2]; PRE 100 μM): 8.77; calculated binding capacity (100-% n) after subtraction of the DMSO apparent binding capacity ([2]; PRE 200 μM): 0.33
— | — |  | Ac-RDAQNLI-NH2 [PRE 13] | 
— | — | 7.14 | Ac-RDAQNLIGISI-NH2 [PRE 11] | calculated binding capacity (100-% n) after subtraction of the DMSO apparent binding capacity ([1]; PRE 100 μM): 11.04; calculated binding capacity (100-% n) after subtraction of the DMSO apparent binding capacity ([1]; PRE 200 μM): 6.40
H | — | 8.14 | Ac-isigilgnadk-NH2 [PRE 9] | calculated binding capacity (100-% n) after subtraction of the DMSO apparent binding capacity ([1]; PRE 100 μM): 0.3; targeting of PKC-βII ([1]; purified isoform, Tables 14-19): targeted most strongly
— | — | 1.11 | ILEDKGGDAQNLIGISI [PRE 8] | 
